The text below walks through data of publication PMC6652776.

Assay [1] addresses PE-PilA fusion protein (version used in solution and ELISA experiments) (nontypeable Haemophilus influenzae strain 772 | nontypeable Haemophilus influenzae strain 86-028NP). As to the kind of experiment: AUC; sedimentation velocity, 25,000 rpm, AN-60Ti rotor, 15°C, absorbance at 280 nm, c(S) model in Sedfit.
Assay [2] addresses protein E (PE), recombinant, isolated (nontypeable Haemophilus influenzae strain 772). The assay is described as above.

Take “PE-PilA fusion protein (version used in solution and ELISA experiments)”: the stoichiometry N in assay [1] was 2.
Regarding “protein E (PE), recombinant, isolated (domain or fragment)”, the stoichiometry N in assay [2] came out at 2.

One may read the stoichiometry N as the number of molecules, sites or subunits per partner or assembly.
